The text below walks through data of PMC8022922.

The assay addresses AfMAT1-1-1_(78–235) (Aspergillus fumigatus). Nature of the assay: SEC.

For “AfMAT1-1-1_(78–235) (domain or fragment)”, the stoichiometry N amounted to 2.
